Laboratory results reported in patent US20050054569A1, “Mutants and assay system to identify USP/RXR ligands” (published 2005).

How the values were obtained:
[1] = molecular target: the molecule itself; experiment: dimerisation, gel mobility shift on DR12 probe (not shown)
[2] = molecular target: the molecule itself; experiment: homodimerisation, gel mobility shift on 4DR12 probe; bands assigned with Superdex 200 fractions
Description: Arrows show time of addition of methyl epoxyfarnesoate or EtOH carrier.
Nuclear extracts were isolated from Sf9 cells as previously described Jones et al. (2001) Insect Biochem. Mol. Biol. 32, 33-49; Jones et al (1998) Biochem. J. 335, 79-84; 79-84; Jones et al. (2000) Biochem. J. 346, 233-240. For the DR12 probe, the double stranded DR12 oligonucleotide (sequence as shown above) was 5′ end-labelled with ³²P by T4 polynucleotide kinase (New England Biolabs Inc.), and then purified from a 20% native polyacrylamide gel. The same double stranded DR12 oligonucleotide was used in 100-fold excess as a self competitor. For the 4DR12Core probe, the 4DR12Core sequence was liberated from the vector as a 148-bp ClaI/HindIII fragment, and was 5′ end-labelled with ³²P and purified. The same, unlabelled fragment was used at 100-fold excess as a self competitor. As a negative control for specificity in gel shifts, the 36 bp BglII/KpnI polylinker region fragment of the pGL3 vector was liberated and recovered from low melting point agarose gels and used as a 100 nonself competitor (sequence: […], SEQ ID NO: 17). […]

[3] = molecular target: T1, USP (ultraspiracle) wild-type (Drosophila melanogaster, UniProt P20153 SEQ:1-508); experiment: competition; 100x nonself competitor, specificity control; conditions: tags: His-tag, pET32EK (Novagen); chain copies: monomer and homodimer (stated)
T1 sequence: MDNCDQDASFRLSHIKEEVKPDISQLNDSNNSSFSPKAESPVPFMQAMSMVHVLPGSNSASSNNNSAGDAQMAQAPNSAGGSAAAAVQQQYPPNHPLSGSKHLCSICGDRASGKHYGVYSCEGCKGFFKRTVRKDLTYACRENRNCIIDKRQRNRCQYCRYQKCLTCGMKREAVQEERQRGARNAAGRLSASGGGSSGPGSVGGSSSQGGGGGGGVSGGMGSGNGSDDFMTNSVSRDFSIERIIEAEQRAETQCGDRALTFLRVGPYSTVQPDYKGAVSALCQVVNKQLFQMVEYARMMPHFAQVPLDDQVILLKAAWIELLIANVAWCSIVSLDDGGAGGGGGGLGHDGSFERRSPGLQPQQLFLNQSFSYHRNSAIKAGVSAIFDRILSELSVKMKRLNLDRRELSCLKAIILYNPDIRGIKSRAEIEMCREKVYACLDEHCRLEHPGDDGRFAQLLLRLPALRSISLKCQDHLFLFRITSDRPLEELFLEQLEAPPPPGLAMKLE
Method: (§1) Control competitions with self and nonself unlabelled excess probes confirmed the specificity of binding. […] (B) The homodimer-enriched fraction of each receptor preparation was then analyzed for binding to […] methyl epoxyfarnesoate, using an intrinsic fluorescence assay method that tracks ligand binding (by suppression in receptor fluorescence) Jones et al., (2000) Insect Biochem. Mol. Biol. 30, 671-679; Jones et al. (2001), Insect Biochem. Mol. Biol. 32, 33-49. […] Arrows show time of addition of methyl epoxyfarnesoate or EtOH carrier.
(§2) Nuclear extracts were isolated from Sf9 cells as previously described Jones et al. (2001) Insect Biochem. Mol. Biol. 32, 33-49; Jones et al (1998) Biochem. J. 335, 79-84; 79-84; Jones et al. (2000) Biochem. J. 346, 233-240. For the DR12 probe, the double stranded DR12 oligonucleotide (sequence as shown above) was 5′ end-labelled with ³²P by T4 polynucleotide kinase (New England Biolabs Inc.), and then purified from a 20% native polyacrylamide gel. The same double stranded DR12 oligonucleotide was used in 100-fold excess as a self competitor. For the 4DR12Core probe, the 4DR12Core sequence was liberated from the vector as a 148-bp ClaI/HindIII fragment, and was 5′ end-labelled with ³²P and purified. The same, unlabelled fragment was used at 100-fold excess as a self competitor. […]

[4] = molecular target: T2, USP C472A/H475L (Drosophila melanogaster, UniProt P20153 SEQ:1-508, C472A/H475L); experiment: as above; conditions: tags: His-tag, pET32EK (Novagen); chain copies: monomer and homodimer (stated)
T2 sequence: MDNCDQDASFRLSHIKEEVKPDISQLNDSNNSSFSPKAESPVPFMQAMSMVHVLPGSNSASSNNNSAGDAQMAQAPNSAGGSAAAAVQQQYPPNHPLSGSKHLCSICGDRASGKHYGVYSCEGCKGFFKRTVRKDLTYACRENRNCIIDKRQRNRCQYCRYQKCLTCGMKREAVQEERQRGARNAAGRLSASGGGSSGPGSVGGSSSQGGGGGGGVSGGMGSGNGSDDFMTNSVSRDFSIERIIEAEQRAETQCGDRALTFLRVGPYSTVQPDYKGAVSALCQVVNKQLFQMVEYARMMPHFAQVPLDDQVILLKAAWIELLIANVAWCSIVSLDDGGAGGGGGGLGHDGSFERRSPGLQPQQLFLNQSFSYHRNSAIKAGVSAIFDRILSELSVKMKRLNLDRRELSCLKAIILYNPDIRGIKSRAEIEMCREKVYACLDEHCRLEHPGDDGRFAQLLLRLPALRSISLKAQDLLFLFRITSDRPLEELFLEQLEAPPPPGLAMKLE
Method: as §1, §2

B1: His-tagged wild-type Drosophila melanogaster USP (bacterially overexpressed) (receptor)
chain: MDNCDQDASFRLSHIKEEVKPDISQLNDSNNSSFSPKAESPVPFMQAMSMVHVLPGSNSASSNNNSAGDAQMAQAPNSAGGSAAAAVQQQYPPNHPLSGSKHLCSICGDRASGKHYGVYSCEGCKGFFKRTVRKDLTYACRENRNCIIDKRQRNRCQYCRYQKCLTCGMKREAVQEERQRGARNAAGRLSASGGGSSGPGSVGGSSSQGGGGGGGVSGGMGSGNGSDDFMTNSVSRDFSIERIIEAEQRAETQCGDRALTFLRVGPYSTVQPDYKGAVSALCQVVNKQLFQMVEYARMMPHFAQVPLDDQVILLKAAWIELLIANVAWCSIVSLDDGGAGGGGGGLGHDGSFERRSPGLQPQQLFLNQSFSYHRNSAIKAGVSAIFDRILSELSVKMKRLNLDRRELSCLKAIILYNPDIRGIKSRAEIEMCREKVYACLDEHCRLEHPGDDGRFAQLLLRLPALRSISLKCQDHLFLFRITSDRPLEELFLEQLEAPPPPGLAMKLE
notes: Full-length dUSP cloned into pET32EK, purified on nickel resin and Superdex 200; also called wild-type dUSP; His-dUSP fusion protein; not shown: His tag / fusion part from the vector pET32EK
binding result [1]: binds

B2: P498W/P499W mutant USP (receptor, not shown: small tags and cut ends)
chain: MDNCDQDASFRLSHIKEEVKPDISQLNDSNNSSFSPKAESPVPFMQAMSMVHVLPGSNSASSNNNSAGDAQMAQAPNSAGGSAAAAVQQQYPPNHPLSGSKHLCSICGDRASGKHYGVYSCEGCKGFFKRTVRKDLTYACRENRNCIIDKRQRNRCQYCRYQKCLTCGMKREAVQEERQRGARNAAGRLSASGGGSSGPGSVGGSSSQGGGGGGGVSGGMGSGNGSDDFMTNSVSRDFSIERIIEAEQRAETQCGDRALTFLRVGPYSTVQPDYKGAVSALCQVVNKQLFQMVEYARMMPHFAQVPLDDQVILLKAAWIELLIANVAWCSIVSLDDGGAGGGGGGLGHDGSFERRSPGLQPQQLFLNQSFSYHRNSAIKAGVSAIFDRILSELSVKMKRLNLDRRELSCLKAIILYNPDIRGIKSRAEIEMCREKVYACLDEHCRLEHPGDDGRFAQLLLRLPALRSISLKCQDHLFLFRITSDRPLEELFLEQLEAWWPPGLAMKLE
notes: Two prolines at the end of alpha-helix 12 replaced by tryptophan
binding result [1]: binds

B3: His-tagged mutant dUSP Cys472Ala/His475Leu (bacterially overexpressed) (receptor)
chain: MDNCDQDASFRLSHIKEEVKPDISQLNDSNNSSFSPKAESPVPFMQAMSMVHVLPGSNSASSNNNSAGDAQMAQAPNSAGGSAAAAVQQQYPPNHPLSGSKHLCSICGDRASGKHYGVYSCEGCKGFFKRTVRKDLTYACRENRNCIIDKRQRNRCQYCRYQKCLTCGMKREAVQEERQRGARNAAGRLSASGGGSSGPGSVGGSSSQGGGGGGGVSGGMGSGNGSDDFMTNSVSRDFSIERIIEAEQRAETQCGDRALTFLRVGPYSTVQPDYKGAVSALCQVVNKQLFQMVEYARMMPHFAQVPLDDQVILLKAAWIELLIANVAWCSIVSLDDGGAGGGGGGLGHDGSFERRSPGLQPQQLFLNQSFSYHRNSAIKAGVSAIFDRILSELSVKMKRLNLDRRELSCLKAIILYNPDIRGIKSRAEIEMCREKVYACLDEHCRLEHPGDDGRFAQLLLRLPALRSISLKAQDLLFLFRITSDRPLEELFLEQLEAPPPPGLAMKLE
notes: also called C472A/H475L; double mutant dUSP; not shown: His tag / fusion part from the vector pET32EK
binding result [2]: binds

B4: pGL3 polylinker (nonself) (dsDNA)
DNA 1: GGTACCGAGCTCTTACGCGTGCTAGCCCGGGCTCGA
DNA 2: TCGAGCCCGGGCTAGCACGCGTAAGAGCTCGGTACC
binding result [3]: no binding
binding result [4]: no binding
